Data reported in patent EP2908837B1 (Vect-Horus, dated 2014).

Tests used:
[1] = biological target: mouse LDLR (in vivo, wild-type against LDLR -/- mice) (mouse, UniProt P35951 22-862); assay: cell-based or functional assay
[2] = biological target: T1, Fc alone (human Fc fragment of an IgG1 antibody) (human, UniProt P01857-1 104-330 = IgG part, limits assumed); assay: pulse-chase immunocytochemistry on CHO-hLDLR-GFP cells, anti-human Fc antibody Alexa 594
T1 construct: domain: Fc fragment; Negative control

mouse LDLR (in vivo, wild-type against LDLR -/- mice), sequence (P35951 22-862): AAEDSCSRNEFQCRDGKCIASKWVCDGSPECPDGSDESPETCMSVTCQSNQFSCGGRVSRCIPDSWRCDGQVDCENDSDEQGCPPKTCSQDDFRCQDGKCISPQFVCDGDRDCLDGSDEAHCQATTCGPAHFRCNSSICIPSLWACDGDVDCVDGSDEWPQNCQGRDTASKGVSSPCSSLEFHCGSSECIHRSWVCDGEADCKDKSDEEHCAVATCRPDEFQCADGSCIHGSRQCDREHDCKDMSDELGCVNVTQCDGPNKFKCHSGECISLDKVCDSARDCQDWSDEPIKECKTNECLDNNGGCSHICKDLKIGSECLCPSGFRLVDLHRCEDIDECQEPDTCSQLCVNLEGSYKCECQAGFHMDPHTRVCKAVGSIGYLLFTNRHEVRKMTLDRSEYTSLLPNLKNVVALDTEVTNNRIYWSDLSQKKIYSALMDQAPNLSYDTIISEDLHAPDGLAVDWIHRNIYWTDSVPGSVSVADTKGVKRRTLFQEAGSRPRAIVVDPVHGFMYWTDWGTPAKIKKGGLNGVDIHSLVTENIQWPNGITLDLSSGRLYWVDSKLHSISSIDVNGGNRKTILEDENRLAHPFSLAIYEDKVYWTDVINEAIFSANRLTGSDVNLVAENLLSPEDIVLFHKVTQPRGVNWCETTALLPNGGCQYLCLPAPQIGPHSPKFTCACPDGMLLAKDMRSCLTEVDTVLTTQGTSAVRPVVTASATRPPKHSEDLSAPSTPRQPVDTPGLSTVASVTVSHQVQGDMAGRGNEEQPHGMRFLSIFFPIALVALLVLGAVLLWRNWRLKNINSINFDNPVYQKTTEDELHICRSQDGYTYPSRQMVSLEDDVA

Row | decrease in peptide concentration in the adrenal glands of LDLR-/- (KO) mice compared to wild-type mice, tritium-labelled peptide, 10 min after i.v. injection [1] [fold] | decrease in peptide concentration in the intestine of LDLR-/- (KO) mice compared to wild-type mice, tritium-labelled peptide, 10 min after i.v. injection [1] [fold] | decrease in peptide concentration in the liver of LDLR-/- (KO) mice compared to wild-type mice, tritium-labelled peptide, 10 min after i.v. injection [1] [fold] | binding result [2] | Binder
1 | ~3.4 | ~3.6 | ~4 |  | XMXRLRGX ((D)-Cys at 1, Thz (thiazolidine-4-carboxylic acid) at 3, Pen (penicillamine) at 8; cyclised by a disulfide bridge) [peptide SEQ ID NO: 1, (D)-Cys-Met-Thz-Arg-Leu-Arg-Gly-Pen]
2 |  |  |  | no binding (tested: 5 nM) | hLDLR fused to GFP, on CHO-hLDLR-GFP cells (receptor, whole, on cells; also called CHO-LDLR-GFP; not shown: GFP fused in the C-term position) not shown
